{"source": "paper PMC10352601", "about": "(Blood, 2023)", "binders": {"B1": {"name": "Fab fragment of NB33, a recombinant immunoglobulin G derivative of KM33 (Fab, V domains shown)", "VH": "EVQLVESGGGVVQPGRSLRLSCVDSGLTFSSYGMHWVRQAPGAGLEWVAVISYDGNDKYYADSVKGRFAISRDNAKNTLYLQMNSLTIEDTAVYYCAKDLIESNIAEAFWGQGTLVTVSS", "VL": "DIQMTQSPSSLSASVGDTVTIACRASRDIRNDLAWYQQKPGKAPKLLIYATSRLQSGVPSRFSGSGSFTDFTLTINSLQPDDSATYYCLQDSDYPLTFGGGTKVDIK"}}, "biological_target": "T1, ET3i, a bioengineered human/porcine FVIII chimera (Homo sapiens / Sus scrofa chimera (A1, …, chimera))", "T1 chain": "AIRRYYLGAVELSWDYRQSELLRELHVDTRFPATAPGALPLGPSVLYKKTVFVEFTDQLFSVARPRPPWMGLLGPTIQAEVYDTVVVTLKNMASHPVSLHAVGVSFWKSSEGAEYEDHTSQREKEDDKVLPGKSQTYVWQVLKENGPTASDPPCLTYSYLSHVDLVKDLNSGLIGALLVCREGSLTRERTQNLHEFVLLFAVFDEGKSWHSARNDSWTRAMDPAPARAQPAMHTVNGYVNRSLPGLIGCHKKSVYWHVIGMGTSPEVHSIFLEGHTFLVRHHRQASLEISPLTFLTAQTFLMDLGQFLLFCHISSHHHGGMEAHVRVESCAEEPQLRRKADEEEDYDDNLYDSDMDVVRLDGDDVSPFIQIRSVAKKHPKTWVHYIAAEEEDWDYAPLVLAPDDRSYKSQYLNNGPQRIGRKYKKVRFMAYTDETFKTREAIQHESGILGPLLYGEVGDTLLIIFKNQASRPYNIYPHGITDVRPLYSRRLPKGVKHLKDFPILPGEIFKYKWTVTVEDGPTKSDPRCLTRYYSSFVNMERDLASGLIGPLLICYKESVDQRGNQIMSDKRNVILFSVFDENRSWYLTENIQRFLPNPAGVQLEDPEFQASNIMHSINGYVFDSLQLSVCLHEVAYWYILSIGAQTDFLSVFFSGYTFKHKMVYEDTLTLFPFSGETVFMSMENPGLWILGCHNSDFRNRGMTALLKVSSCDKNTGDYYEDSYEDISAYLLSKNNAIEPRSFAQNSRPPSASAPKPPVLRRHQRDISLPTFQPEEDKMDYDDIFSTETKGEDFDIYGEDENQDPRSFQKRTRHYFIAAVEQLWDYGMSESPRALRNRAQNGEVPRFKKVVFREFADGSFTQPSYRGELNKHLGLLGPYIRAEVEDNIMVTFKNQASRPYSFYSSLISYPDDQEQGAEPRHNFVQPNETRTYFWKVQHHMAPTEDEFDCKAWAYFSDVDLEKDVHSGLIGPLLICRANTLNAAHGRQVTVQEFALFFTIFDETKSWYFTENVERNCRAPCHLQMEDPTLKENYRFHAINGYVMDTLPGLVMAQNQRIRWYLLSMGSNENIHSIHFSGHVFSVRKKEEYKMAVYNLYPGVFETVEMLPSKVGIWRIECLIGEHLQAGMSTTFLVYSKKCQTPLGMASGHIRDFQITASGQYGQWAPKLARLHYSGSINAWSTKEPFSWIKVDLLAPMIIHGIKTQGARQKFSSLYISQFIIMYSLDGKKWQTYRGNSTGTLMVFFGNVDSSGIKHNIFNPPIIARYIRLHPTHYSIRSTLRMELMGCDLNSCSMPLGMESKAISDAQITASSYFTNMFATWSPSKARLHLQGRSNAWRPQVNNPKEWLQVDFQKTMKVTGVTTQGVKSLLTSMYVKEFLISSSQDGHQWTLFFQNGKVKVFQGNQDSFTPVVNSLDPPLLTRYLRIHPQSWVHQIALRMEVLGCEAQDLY", "test": "cell-based or functional assay", "data": [{"binder": "B1", "values": [{"measurement": "neutralization of ET3i by NB33, factor X activation chromogenic assay (IC50)", "value": 3.64, "unit": "nM"}]}]}
